Laboratory results taken from paper PMC3285612.

Key:
[1] = target: activated coagulation factor X (FXa), human (human)
[2] = target: activated coagulation factor X (FXa), human (human); assay: enzyme inhibition assay (Ki from IC50 by Cheng and Prusoff); rSimukunin titrated against a constant concentration of enzyme, pre-incubated 5 min, fluorogenic peptidyl substrate 250 µM, 30°C; Ki calculated from the IC50 and the substrate's Km; estimated

B1: recombinant Simukunin (rSV-66) (natural protein)
chain: QENVCNLPVDEGVCRALFKRFYYEPATDSCKEFYYGGCEGNGNRFKSKKECILKCQKNKQLIKTRKRKPKKTTKPPIPIISLD
IC50 of inhibition of enzyme activity (fluorogenic peptidyl substrate, 250 µM); Factor Xa 0.1 nM [1]: 5.2 nM
Ki [2]: 2.1 nM
